Source: patent publication US20250296992A1 (Genmab, published 2025)
Residue numbers refer to the chain shown, from its start.

B1: hu14G1-03 (antibody, V domains shown)
VH: EVQLVESGGGLVQPGGSLRLSCAASGFTFSDYGMHWVRQAPGKGLEWVSYISPGSSTIYYADTMKGRFTISRDNAKNSLYLQMNSLRAEDTAVYYCARAYGGSYWYFAVWGQGTLVTVSS
VL: DIQMTQSPSSLSASVGDRVTITCRASGNIHSYLAWYQQKPGKSPQLLVYNAKTLADGVPSRFSGSGSGTDYTLTISSLQPEDFGTYYCQHFWSTPYTFGGGTKLEIK
B2: hu1H2-03 (antibody, V domains shown)
VH: EVQLVESGGGLVQPGGSLRLSCAASGFTFSDYGLHWVRQAPGKGLEWVSYISSGSSTVYFADTLKGRFTISRDNAKNSLYLQMNSLRAEDTAVYYCTRGTWYFDVWGRGTLVTVSS
VL: B1 VL with A25T, G27E, Y86F, S93T, P95S, Y96R, L104V
notes: see m20
B3: hu1H2-13 (antibody, V domains shown)
VH: B2 VH with S49A
VL: B1 VL with A25T, G27E, Y86F, S93T, P95S, Y96R, L104V
B4: hu1H2-03-LD343 (8) (antibody, V domains shown)
VH: B2 VH
VL: B1 VL with A25T, G27E, Y86F, S93T, P95S, Y96R, L104V
modifications: drug-linker LD343 on cysteines freed by TCEP reduction, DAR 8.0; positions not given
B5: hu1H2-03-LD038 (8) (antibody, V domains shown)
VH: B2 VH
VL: B1 VL with A25T, G27E, Y86F, S93T, P95S, Y96R, L104V
modifications: drug-linker LD038 on cysteines freed by TCEP reduction, DAR 8.0; positions not given
notes: also called hu1H2-03 ADC
B6: hu14G1-03-LD038 (8) (antibody, V domains shown)
VH: B1 VH
VL: B1 VL
modifications: drug-linker LD038 on cysteines freed by TCEP reduction, DAR 8.0; positions not given
notes: also called hu14G1-03 ADC
B7: hu1H2-13-LD038 (8) (antibody, V domains shown)
VH: B2 VH with S49A
VL: B1 VL with A25T, G27E, Y86F, S93T, P95S, Y96R, L104V
modifications: drug-linker LD038 on cysteines freed by TCEP reduction, DAR 8.0; positions not given
notes: also called hu1H2-13 ADC
B8: phA108-LD038 (8) (antibody, V domains shown)
VH: QVQLVQSGAEVKKPGASVKVSCTASGYIFNDYYLHWVRQAPGQGLEWVGIINPSGGSPVYAQKFQGRVTMTRDTSTNTVYMELSSLRSEDTAVYYCARGMVRGVRLFDYWGQGTLVTVSA
VL: EIVLTQSPATLSLSPGERATLSCRASQSVSSYLAWYQQKPGQTPRLLIYDASNRATGVPARFSGSGSGTDFTLTISSLETEDFAVYYCQQRTNWPLTFGGGTKVEIK
modifications: drug-linker LD038 on cysteines freed by TCEP reduction, DAR 8.0; positions not given
notes: also called phA108 ADC
B9: phA290-LD038 (8) (antibody, V domains shown)
VH: QVQLVQSGAEVKKPGASVKVSCKASGYTFTSYYMHWVRQAPGQGLEWMGIINPSGGSTSYAQKFQGRVTMTRDTSTSTVYMELSSLRSEDTAVYYCARGFTRYFDYWGQGTLVTVSA
VL: B8 VL with L4M, A9G, S31K, K39R, T43A, V58I, I75V, T80P, T92Y, K103T
modifications: drug-linker LD038 on cysteines freed by TCEP reduction, DAR 8.0; positions not given
notes: also called phA290 ADC
B10: Sirtratumab-LD038 (8) (antibody, V domains shown)
VH: QVQLVESGGGVVQPGRSLRLSCAASGFTFSSYGMHWVRQAPGKGLEWVAVIWYDGSNQYYADSVKGRFTISRDNSKNTLFLQMHSLRAEDTAVYYCARGLTSGRYGMDWGQGTTVTVSS
VL: DIVMTQSPLSLPVTPGEPASISCRSSQSLLLSHGFNYLDWYLQKPGQSPQLLIYLGSSRASGVPDRFSGSGSGTDFTLKISRVEAEDVGLYYCMQPLQIPWTFGQGTKVEIK
modifications: drug-linker LD038 on cysteines freed by TCEP reduction, DAR 8.0; positions not given
notes: also called Sirtratumab ADC

What follows are binders tested against T1, human SLITRK6 extracellular domain linked to his tag (human, UniProt Q9H5Y7 27-608) (assay: BLI binning on huSLITRK6-his; Ab1 = row antibody first, then Ab2 (competitor) = hu1H2-13).
T1 construct: extracellular domain; also called huSLITRK6; Hu SLITRK6; not shown: his tag

epitope binning signal	Binder
0.0268	B1
0.0122	B2
0.0284	B3

These binders were tested against T2, human SLITRK6 on cells (human, UniProt Q9H5Y7 27-841) (assay: flow cytometry on RT4 cells, PE-conjugated anti-human Fc).
T2 construct: whole, on cells
Procedure: (§1) The binding activity of mAbs and ADCs was evaluated by flow cytometer (Beckman, Cytoflex). Specifically, cells were incubated with 50 μL of mAbs or ADCs in series dilutions in PBS containing 1% BSA at 4° C. for 30 min. The cells were washed twice with PBS containing 1% BSA, stained with PE-conjugated anti human Fc in PBS containing 1% BSA and then incubated at 4° C. for 20 min. After that the cells were washed twice with PBS and analyzed by a flow cytometer.

EC50 (read off the curve) [nM]	Binder
~0.4	B4

These binders were tested against T1, human SLITRK6 extracellular domain … (assay: BLI binning on huSLITRK6-his; Ab1 = row antibody first, then Ab2 (competitor) = phA290).
Procedure: (§2) Epitope binning was characterized by the bio-layer interferometry (BLI). 100 nM of human SLITRK6′ extracellular domain linked to his tag was immobilized on anti-his biosensor tips (Fortebio). The sensors were rinsed with the buffer (50 mM Tris-AcOH, pH 6 or 7.5, 0.05% v/v surfactant P20) for 30 seconds to remove the unbound molecules, then dipped in the 100 nM of antibody 1 solutions for 180 seconds and interspersed by a rinsing step in the buffer solution for 300 seconds. After that, the sensors were dipped in the 100 nM of antibody 2 solutions. The epitope cluster was calculated using ForteBio Data Acquisition 6.3 software.

epitope binning signal	Binder
0.326	B1
0.299	B2
0.302	B3

Each binder was assayed against T2, human SLITRK6 on cells (assay: flow cytometry on RT112/84 cells).
Procedure: (§3) The binding activity of mAbs was evaluated by flow cytometer (Beckman, Cytoflex). Specifically, cells were incubated with 50 μL of mAbs or ADCs in series dilutions in PBS containing 1% BSA at 4° C. for 30 minutes. The cells were washed twice with PBS containing 1% BSA, stained with PE-conjugated anti human Fc in PBS containing 1% BSA and then incubated at 4° C. for 20 min. After that the cells were washed twice with PBS and analyzed by a flow cytometer.

EC50 [nM]	Binder
0.35	B1
0.23	B2
0.17	B3

Each binder was assayed against T1, human SLITRK6 extracellular domain … (assay: ELISA, coated antigen).
Procedure: First, a purified antigen was adsorbed to the surface of a PVC 96-well plate for ELISA at 4° C. overnight, the plate was washed twice by filling the wells with 350 μL TBST buffer (200 mM Sodium Chloride, 20 mM Tris, 0.05% Tween-20, pH 8). The surface of the solid phase having no antigen adsorbed thereto was covered with BSA. After washing the surface with TBST buffer, the surface was incubated with a serially diluted mAb as a primary antibody to bind to the antigen for 1 hour at room temperature. The plate was washed twice with TBST buffer and added an antibody labeled with an enzyme as a secondary antibody to incubate for 1 hour at room temperature.

EC50 [nM]	Binder
0.04	B1
0.04	B2
0.07	B3

The binders below were run against T3, cynomolgus monkey SLITRK6 extracellular domain linked to his tag (cynomolgus monkey, UniProt G7PVK4 27-608) (assay: ELISA, coated antigen).
T3 construct: extracellular domain; also called cynoSLITRK6; Cyno SLITRK6; not shown: his tag

EC50 [nM]	Binder
0.04	B1
0.05	B2
0.05	B3

These binders were tested against T1, human SLITRK6 extracellular domain … (assay: BLI binning on huSLITRK6-his; Ab1 = row antibody first, then Ab2 (competitor) = phA108).
Procedure: as §2

epitope binning signal	Binder
0.323	B1
0.304	B2
0.299	B3

What follows are binders tested against T2, human SLITRK6 on cells (assay: flow cytometry on SW780 cells).
Procedure: as §1

EC50 [nM]	Binder
0.44	B5
0.62	B1
0.64	B6
0.44	B2
0.61	B7
0.44	B3
0.29	B8
0.27	B9
0.38	B10

What follows are binders tested against T2, human SLITRK6 on cells (assay: flow cytometry on SCC-4 cells).
Procedure: as §3

EC50 [nM]	Binder
0.44	B1
0.27	B2
0.23	B3

These binders were tested against T1, human SLITRK6 extracellular domain … (assay: BLI binning on huSLITRK6-his; Ab1 = row antibody first, then Ab2 (competitor) = hu14G1-03).
Procedure: as §2

epitope binning signal	Binder
0.0192	B1
0.0077	B2
0.0231	B3

Each binder was assayed against T2, human SLITRK6 on cells (assay: flow cytometry on 293F-SLITRK6-C9 cells).
Procedure: as §1

EC50 [nM]	Binder
1.35	B5
1.77	B1
1.79	B6
1.33	B2
1.6	B7
1.32	B3
1.09	B8
0.79	B9
1.32	B10

What follows are binders tested against T1, human SLITRK6 extracellular domain … (assay: BLI; antigen ECD-his on anti-his tips, antibody as analyte; 1:1 fit;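 further: antibody at several concentrations, 180 s association then 300 s dissociation in Tris buffer at pH 6 or 7.5, rate constants from global fitting, KD computed as koff/kon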).
Procedure: (§4) Binding kinetic of antibody-antigen was characterized by the bio-layer interferometry (BLI). 100 nM of SLITRK6′ extracellular domain linked to his tag was immobilized on anti-his biosensor tips (Fortebio). The sensors were rinsed with the buffer (50 mM Tris-AcOH, pH 6 or 7.5, 0.05% v/v surfactant P20) for 10 min to remove the unbound molecules, then dipped in the antibody solutions at different concentrations for 180 seconds and interspersed by a rinsing step in the buffer solution for 300 seconds. Binding affinity was calculated using ForteBio Data Acquisition 6.3 software (ForteBio) and was derived by fitting the kinetic data to a 1:1 Langmuir binding model utilizing global fitting algorithms. The dissociation or association equilibrium constant KD was calculated from the binding rate constants as KD=koff/kₒₙ(where koff and kₒₙ represent the dissociation kinetic constant and the association kinetic constant, respectively).

Kd [nM]	koff [s⁻¹]	kon [M⁻¹ s⁻¹]	Binder
0.212	8.26e-05	390000	B1
0.92	0.000441	480000	B2
0.916	0.00044	480000	B3

The binders below were run against T3, cynomolgus monkey SLITRK6 extracellular … in the same assay as above.
Procedure: as §4

Kd [nM]	koff [s⁻¹]	kon [M⁻¹ s⁻¹]	Binder
0.965	0.000329	341000	B1
1.27	0.000444	348000	B2
1.36	0.000513	376000	B3

These binders were tested against T2, human SLITRK6 on cells (assay: flow cytometry on RT4 cells).
Procedure: as §3

EC50 [nM]	Binder
0.32	B1
0.28	B2
0.27	B3

The binders below were run against T2, human SLITRK6 on cells (assay: flow cytometry on 293F-huSLITRK6-C9 cells).
Procedure: The binding activity of mAbs was evaluated by flow cytometer (Beckman, Cytoflex). Specifically, cells were incubated with 50 μL of mAbs or ADCs in series dilutions in PBS containing 1% BSA at 4° C. for 30 min. The cells were washed twice with PBS containing 1% BSA, stained with PE-conjugated anti human Fc in PBS containing 1% BSA and then incubated at 4° C. for 20 min. After that the cells were washed twice with PBS and analyzed by a flow cytometer.

EC50 [nM]	Binder
1.77	B1
1.33	B2
1.32	B3

Target: T2, human SLITRK6 on cells
Test: flow cytometry on RT4 cells
Remark: another data set of the same source
Procedure: as §1

EC50 [nM]	Binder
0.47	B5
0.38	B1
0.46	B6
0.36	B2
0.38	B7
0.27	B3
0.16	B8
0.16	B9
0.31	B10

These binders were tested against T2, human SLITRK6 on cells (assay: flow cytometry on SW780 cells, PE-conjugated anti-human Fc).
Procedure: as §1

EC50 (read off the curve) [nM]	Binder
~0.3	B4

These binders were tested against T1, human SLITRK6 extracellular domain … (assay: BLI binning on huSLITRK6-his; Ab1 = row antibody first, then Ab2 (competitor) = hu1H2-03).
Procedure: as §2

epitope binning signal	Binder
0.0244	B1
0.0113	B2
0.0288	B3

What follows are binders tested against T2, human SLITRK6 on cells (assay: cell-based or functional assay).

Binder	IC50 (nM), cytotoxicity on CHP-212 cells (Cell Titer-Glo) [nM]	IC50 (nM), cytotoxicity on RT4 cells (Cell Titer-Glo) [nM]	IC50 (nM), cytotoxicity on 293F-SLITRK6-C9 cells (Cell Titer-Glo) [nM]
B5	0.83	7.02	–
B6	0.91	9.56	–
B7	0.93	5.06	0.06
B8	2.82	7.29	0.06
B9	1.22	5.9	–
B10	5.56	9.25	0.06

What follows are binders tested against T1, human SLITRK6 extracellular domain … (assay: BLI binning on huSLITRK6-his; Ab1 = row antibody first, then Ab2 (competitor) = Sirtratumab).
Procedure: as §2

epitope binning signal	Binder
0.293	B1
0.299	B2
0.312	B3

Target: T2, human SLITRK6 on cells
Test: flow cytometry on SW780 cells
Remark: another data set of the same source
Procedure: as §3

EC50 [nM]	Binder
0.61	B1
0.41	B2
0.45	B3

Each binder was assayed against T2, human SLITRK6 on cells (assay: flow cytometry on CHP-212 cells).
Procedure: as §3

EC50 [nM]	Binder
0.33	B1
0.22	B2
0.22	B3

Target: T2, human SLITRK6 on cells
Test: flow cytometry on CHP-212 cells
Remark: another data set of the same source
Procedure: as §1

EC50 [nM]	Binder
0.4	B5
0.37	B1
0.65	B6
0.24	B2
0.5	B7
0.22	B3
0.14	B8
0.13	B9
0.49	B10
